Consider two molecules from patent US20090047285A1 (ONCOMED PHARMACEUTICALS, published 2009).

Changes are numbered by the printed parent chain.

The target of test [1] is T1, hNotch1 glutamate ligand binding region protein (EGF10-15), immobilized on a CM5 chip (human, UniProt P46531 375-601).
T1 construct: domain: EGF10-15
As to the kind of experiment: Biacore 2000, Notch EGF10-15 protein on CM5 chip, antibody 25 to 0.20 nM. Here is the method: (§1) The KD's of certain anti-Notch glutamate ligand binding region antibodies were determined using the Biacore 2000 system from Biacore Lifesciencse (GE Healthcare). Specifically, purified anti-Notch glutamate ligand binding region antibodies were serially diluted in 2-fold increments from 25 to 0.20 nM in PBS with HBS-P (0.01 M HEPES pH 7.4, 0.15 M NaCl, 0.005% v/v Surfactant P20). Each dilution was tested against Notch glutamate ligand binding region proteins (EGF10-15) immobilized onto a CM5 Biacore chip. The association and dissociation rates were measured and KD values determined using the Biaevaluation software program. NB in the table below means a binding affinity as measured by a KD that is at least ten-fold weaker than the notch-ligand (delta-like ligand) affinity constant.

In test [2] the target is T2, mNotch1 glutamate ligand binding region protein (EGF10-15), immobilized on a CM5 chip (mouse, UniProt Q01705 375-601).
T2 construct: domain: EGF10-15
T2 sequence (looked up): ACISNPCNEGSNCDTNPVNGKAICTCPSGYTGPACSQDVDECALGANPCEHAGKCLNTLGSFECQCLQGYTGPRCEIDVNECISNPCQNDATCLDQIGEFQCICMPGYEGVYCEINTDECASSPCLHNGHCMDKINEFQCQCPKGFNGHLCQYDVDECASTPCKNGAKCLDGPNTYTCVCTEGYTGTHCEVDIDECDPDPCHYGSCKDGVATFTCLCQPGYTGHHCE
Described as above. Here is the method: as §1

The target of test [3] is T3, full length Notch1 E424Q, expressed on HEK 293 cells (human, UniProt P46531 19-2555).
T3 construct: whole, on cells; also called mutated receptor (E424Q)
As to the kind of experiment: FACS on transfected HEK 293 cells (FIG. 5).

Test [4] addresses T4, hNotch3 glutamate ligand binding region protein (EGF10-15 as printed), immobilized on a CM5 chip (human, UniProt Q9UM47 351-580).
T4 construct: domain: EGF10-15; For Notch3 the equivalent repeats would be EGF9-14
T4 sequence (looked up): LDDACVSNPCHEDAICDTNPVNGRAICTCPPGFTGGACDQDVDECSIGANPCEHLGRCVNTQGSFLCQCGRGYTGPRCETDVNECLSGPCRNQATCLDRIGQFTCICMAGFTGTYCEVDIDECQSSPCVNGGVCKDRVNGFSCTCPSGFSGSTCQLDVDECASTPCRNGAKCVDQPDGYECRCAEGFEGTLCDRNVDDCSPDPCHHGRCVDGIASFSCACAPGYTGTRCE
In words: Biacore 2000, Notch ligand binding region protein on CM5 chip, antibody 25 to 0.20 nM. Here is the method: as §1
(SPR reads the build-up and loss of mass on a sensor chip optically.)

The next test deals with T5, mNotch3(EGF9-14)Fc (mouse, UniProt Q61982 352-581).
T5 construct: domain: EGF9-14; also called murine Notch3; selected antigen; not shown: Fc
T5 sequence (looked up): T4 sequence (looked up) with N22S, T153M, D193E, T227I
In words: survey of fAbs after phage display selection on mNotch3(EGF9-14)Fc.

T3 sequence (P46531 19-2555 E424Q): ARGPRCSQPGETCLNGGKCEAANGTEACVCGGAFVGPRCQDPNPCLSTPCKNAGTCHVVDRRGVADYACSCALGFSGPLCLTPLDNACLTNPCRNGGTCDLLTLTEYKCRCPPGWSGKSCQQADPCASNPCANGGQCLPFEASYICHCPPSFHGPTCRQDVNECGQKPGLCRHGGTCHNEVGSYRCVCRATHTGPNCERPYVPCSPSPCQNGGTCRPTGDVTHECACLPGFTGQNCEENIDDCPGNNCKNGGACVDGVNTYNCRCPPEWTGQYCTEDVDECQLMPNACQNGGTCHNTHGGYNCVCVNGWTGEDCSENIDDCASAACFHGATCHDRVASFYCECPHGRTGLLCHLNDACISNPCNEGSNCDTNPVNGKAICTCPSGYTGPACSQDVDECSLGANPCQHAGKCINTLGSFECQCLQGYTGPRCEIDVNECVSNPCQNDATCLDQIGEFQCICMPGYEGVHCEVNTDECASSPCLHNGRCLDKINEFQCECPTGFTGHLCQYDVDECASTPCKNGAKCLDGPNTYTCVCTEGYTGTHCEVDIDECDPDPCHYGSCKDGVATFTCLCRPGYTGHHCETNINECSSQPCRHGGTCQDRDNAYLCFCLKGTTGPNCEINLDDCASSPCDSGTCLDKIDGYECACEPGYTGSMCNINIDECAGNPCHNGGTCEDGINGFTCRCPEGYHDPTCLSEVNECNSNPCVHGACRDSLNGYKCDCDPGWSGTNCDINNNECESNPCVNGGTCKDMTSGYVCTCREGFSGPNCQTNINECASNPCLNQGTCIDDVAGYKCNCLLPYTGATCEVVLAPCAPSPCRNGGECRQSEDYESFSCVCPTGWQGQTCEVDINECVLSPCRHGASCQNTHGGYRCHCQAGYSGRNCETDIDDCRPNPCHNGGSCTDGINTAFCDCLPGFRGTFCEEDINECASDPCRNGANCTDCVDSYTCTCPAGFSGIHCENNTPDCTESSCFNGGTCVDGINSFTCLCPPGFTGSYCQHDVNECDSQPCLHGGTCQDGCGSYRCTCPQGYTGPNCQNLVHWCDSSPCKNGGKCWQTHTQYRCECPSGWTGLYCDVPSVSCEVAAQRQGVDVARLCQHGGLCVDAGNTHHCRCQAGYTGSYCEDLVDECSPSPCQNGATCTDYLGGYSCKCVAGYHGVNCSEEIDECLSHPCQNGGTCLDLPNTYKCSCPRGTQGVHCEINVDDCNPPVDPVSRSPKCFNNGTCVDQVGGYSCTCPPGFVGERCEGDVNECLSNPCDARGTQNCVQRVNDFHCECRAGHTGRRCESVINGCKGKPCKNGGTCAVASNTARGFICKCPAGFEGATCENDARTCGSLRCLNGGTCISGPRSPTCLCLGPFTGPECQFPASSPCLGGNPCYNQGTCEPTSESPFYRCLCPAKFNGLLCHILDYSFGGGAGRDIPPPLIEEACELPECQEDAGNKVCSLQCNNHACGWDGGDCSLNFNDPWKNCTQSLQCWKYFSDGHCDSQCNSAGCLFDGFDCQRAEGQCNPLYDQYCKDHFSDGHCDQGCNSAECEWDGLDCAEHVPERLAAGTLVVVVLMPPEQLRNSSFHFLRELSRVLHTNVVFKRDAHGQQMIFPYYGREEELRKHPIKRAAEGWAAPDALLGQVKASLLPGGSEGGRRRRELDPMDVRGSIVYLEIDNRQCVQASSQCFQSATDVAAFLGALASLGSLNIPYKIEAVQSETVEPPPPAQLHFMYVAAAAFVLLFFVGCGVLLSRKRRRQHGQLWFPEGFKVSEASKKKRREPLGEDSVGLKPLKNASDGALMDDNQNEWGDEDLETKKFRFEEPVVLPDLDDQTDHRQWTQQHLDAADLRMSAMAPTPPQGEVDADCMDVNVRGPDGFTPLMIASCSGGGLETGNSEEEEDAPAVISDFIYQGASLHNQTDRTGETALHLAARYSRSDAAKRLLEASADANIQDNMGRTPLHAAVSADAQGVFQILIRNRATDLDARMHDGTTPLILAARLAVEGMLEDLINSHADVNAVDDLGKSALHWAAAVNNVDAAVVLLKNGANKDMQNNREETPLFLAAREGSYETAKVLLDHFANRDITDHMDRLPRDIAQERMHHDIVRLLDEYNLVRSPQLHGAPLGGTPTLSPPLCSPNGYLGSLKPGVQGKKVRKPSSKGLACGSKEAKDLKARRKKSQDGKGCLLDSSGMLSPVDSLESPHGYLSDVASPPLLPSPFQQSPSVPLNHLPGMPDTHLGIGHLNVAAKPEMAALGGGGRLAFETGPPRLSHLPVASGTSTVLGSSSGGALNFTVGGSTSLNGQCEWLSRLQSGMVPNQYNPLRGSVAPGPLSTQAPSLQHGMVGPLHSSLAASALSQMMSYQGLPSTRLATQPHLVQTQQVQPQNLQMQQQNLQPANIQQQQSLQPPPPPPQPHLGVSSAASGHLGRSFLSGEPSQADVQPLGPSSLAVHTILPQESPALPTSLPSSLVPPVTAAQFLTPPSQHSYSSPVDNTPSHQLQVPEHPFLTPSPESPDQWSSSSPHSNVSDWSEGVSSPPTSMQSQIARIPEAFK

B1: 90R21 (antibody, V domains shown)
VH: EVQLLESGGGLVQPGGSLRLSCAASGFTFSNYGMSWVRQAPGKGLEWVSSISGYGSNTYYADSVKGRFTISRDNSKNTLYLQMNSLRAEDTAVYYCARISQQAVWGQGTLVTVSS
VL: QSALTQPASVSGSPGQSITISCTGTSSDIGGYQYVSWYQQHPGKAPKLMIYYVSNRPSGVSNRFSGSKSGNTASLTISGLQAEDEADYYCQSADSSSWVFGGGTKLTVLG
notes: also called ATCC deposit No. PTA-8909
On to B1, for which the results for the Kd in test [1] and in test [2] were under 0.1 nM and 0.25 nM, respectively.

B2: 122R5 (Fab, V domains shown)
VH: QVQLVESGGGLVQPGGSLRLSCAASGFTFSDNAIHWVRQAPGKGLEWVSAISSYGSGTYYADSVKGRFTISRDNSKNTLYLQMNSLRAEDTAVYYCARPGFQFSFTFMDIWGQGTLVTVSS
VL: DIELTQPPSVSVAPGQTARISCSGDALGSKYASWYQQKPGQAPVLVIYDDKNRPSGIPERFSGSNSGNTATLTISGTQAEDEADYYCQSWDGKSKVVFGGGTKLTVLG
notes: Human fAb from phage display; also called fAb122R5; lead fAb, 122R5
As for B2, the binding result is “no binding” in test [3] and “binds” with mNotch3(EGF9-14)Fc. In addition, the figures for the Kd in test [1] and in test [4] were 4.25 nM and under 0.1 nM, respectively.
